Experimental data as given in PMC10516938, “Conformational dynamics of cohesin/Scc2 loading complex are regulated by Smc3 acetylation and ATP binding” (Nature Communications, 2023).

Legend:
[1] = molecular target: T1, Smc3^QQ R1008I K1004C (S. cerevisiae, UniProt P47037 1-1230, K112Q | K113Q | K1004C | R1008I); test: cross-linking; in vivo BMOE cross-link of cysteine pairs in yeast cells arrested in late G1 by non-degradable Sic1(9m); Scc1-PK immunoprecipitated, western blot, band intensities quantified; details: partners not purified
T1 construct: Smc3, S. cerevisiae; also called smc3-QQ K1004C with R1008I; source: S. cerevisiae W303, late G1 arrested cells, whole-cell extract
T1 sequence (looked up): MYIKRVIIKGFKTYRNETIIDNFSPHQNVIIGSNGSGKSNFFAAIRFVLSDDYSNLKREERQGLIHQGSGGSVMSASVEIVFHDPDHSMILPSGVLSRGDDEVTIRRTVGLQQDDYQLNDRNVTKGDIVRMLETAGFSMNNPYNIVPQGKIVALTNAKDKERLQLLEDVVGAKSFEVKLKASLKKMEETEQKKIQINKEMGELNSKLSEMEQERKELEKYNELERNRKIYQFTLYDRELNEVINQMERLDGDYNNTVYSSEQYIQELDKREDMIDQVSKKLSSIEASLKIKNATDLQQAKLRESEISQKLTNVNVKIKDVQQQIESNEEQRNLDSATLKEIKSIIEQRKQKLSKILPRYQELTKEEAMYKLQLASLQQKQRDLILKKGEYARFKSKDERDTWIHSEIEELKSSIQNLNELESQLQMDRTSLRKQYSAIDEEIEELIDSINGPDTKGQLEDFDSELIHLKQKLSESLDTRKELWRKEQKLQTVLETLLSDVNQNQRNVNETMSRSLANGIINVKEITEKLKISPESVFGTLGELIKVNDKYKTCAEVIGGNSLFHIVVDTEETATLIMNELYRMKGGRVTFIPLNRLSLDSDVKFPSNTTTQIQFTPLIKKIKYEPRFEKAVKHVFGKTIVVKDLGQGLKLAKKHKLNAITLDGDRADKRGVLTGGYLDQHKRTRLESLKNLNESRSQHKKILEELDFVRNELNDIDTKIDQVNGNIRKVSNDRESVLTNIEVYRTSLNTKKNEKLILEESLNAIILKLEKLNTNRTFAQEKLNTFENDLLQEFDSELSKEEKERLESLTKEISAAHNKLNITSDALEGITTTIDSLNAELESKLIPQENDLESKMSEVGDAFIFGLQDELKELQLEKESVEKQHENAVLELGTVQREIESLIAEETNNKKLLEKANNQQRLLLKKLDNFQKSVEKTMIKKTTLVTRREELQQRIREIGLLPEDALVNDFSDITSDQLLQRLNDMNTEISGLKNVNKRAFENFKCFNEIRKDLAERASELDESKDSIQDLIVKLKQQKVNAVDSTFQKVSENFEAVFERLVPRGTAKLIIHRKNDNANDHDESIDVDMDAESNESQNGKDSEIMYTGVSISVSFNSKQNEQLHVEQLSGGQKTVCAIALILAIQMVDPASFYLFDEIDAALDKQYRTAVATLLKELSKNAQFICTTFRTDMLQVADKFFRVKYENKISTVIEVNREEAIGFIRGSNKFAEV

[2] = molecular target: T2, Smc3^QQ W483R R1008I K1004C (S. cerevisiae, UniProt P47037 1-1230, K112Q | K113Q | W483R | K1004C | R1008I); test: as above; details: partners not purified
T2 construct: Smc3, S. cerevisiae; also called smc3-QQ K1004C with R1008I and W483R; source: S. cerevisiae W303, late G1 arrested cells, whole-cell extract
T2 sequence (looked up): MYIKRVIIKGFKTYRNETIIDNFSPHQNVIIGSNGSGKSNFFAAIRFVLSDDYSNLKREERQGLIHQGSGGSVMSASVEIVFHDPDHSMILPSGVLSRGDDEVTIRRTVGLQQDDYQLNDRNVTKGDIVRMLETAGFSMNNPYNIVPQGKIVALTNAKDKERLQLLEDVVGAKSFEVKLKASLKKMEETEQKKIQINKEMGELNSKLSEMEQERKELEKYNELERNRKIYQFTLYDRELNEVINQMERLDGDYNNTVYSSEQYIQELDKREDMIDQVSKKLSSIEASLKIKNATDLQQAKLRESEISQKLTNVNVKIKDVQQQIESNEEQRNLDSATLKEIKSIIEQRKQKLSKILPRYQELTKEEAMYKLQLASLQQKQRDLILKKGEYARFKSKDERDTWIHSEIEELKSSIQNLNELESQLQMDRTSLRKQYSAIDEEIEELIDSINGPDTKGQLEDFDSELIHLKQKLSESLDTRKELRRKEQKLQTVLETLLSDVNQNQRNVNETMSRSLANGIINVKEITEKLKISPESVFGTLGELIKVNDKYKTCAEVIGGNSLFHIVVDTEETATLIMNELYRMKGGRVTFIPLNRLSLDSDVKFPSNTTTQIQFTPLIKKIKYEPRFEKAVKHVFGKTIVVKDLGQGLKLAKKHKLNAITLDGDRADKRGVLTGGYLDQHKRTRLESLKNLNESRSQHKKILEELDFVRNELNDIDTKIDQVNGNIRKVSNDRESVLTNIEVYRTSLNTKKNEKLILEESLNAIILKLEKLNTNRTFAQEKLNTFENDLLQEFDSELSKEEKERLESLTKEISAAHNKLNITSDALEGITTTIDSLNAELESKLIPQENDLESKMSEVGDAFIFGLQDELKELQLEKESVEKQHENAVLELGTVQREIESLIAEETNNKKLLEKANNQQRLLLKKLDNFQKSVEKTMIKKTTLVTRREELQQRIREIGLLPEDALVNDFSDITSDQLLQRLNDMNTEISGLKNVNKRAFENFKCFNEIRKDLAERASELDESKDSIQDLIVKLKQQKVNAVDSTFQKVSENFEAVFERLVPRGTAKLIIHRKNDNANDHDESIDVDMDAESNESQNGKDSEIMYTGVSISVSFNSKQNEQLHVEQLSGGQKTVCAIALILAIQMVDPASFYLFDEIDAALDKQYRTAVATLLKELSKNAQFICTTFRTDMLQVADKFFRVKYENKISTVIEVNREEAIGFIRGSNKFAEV

B1: Scc2 D369C (natural protein, S. cerevisiae, UniProt Q04002 1-1493, looked up)
chain: MSYPGKDKNIPGRIIEALEDLPLSYLVPKDGLAALVNAPMRVSLPFDKTIFTSADDGRDVNINVLGTANSTTSSIKNEAEKERLVFKRPSNFTSSANSVDYVPTNFLEGLSPLAQSVLSTHKGLNDSINIEKKSEIVSRPEAKHKLESVTSNAGNLSFNDNSSNKKTKTSTGVTMTQANLAEQYLNDLKNILDIVGFDQNSAEIGNIEYWLQLPNKKFVLTTNCLTKLQMTIKNITDNPQLSNSIEITWLLRLLDVMVCNIKFSKSSLKMGLDDSMLRYIALLSTIVLFNIFLLGKNDSNLHRESYIMEPVNFLSDLIESLKILTIEYGSLKIEFDTFQEALELLPKYIRNGPFLDDNVTAKLVYIFSCLLMNNDIEATTNIQFQSFWDNVKRISSDILVSLFGSFDQQRGFIIEELLSHIEKLPTKRIQKKLRKVGNQNIYITDFTFTLMSMLENINCYSFCNQMKDIAPENIDLLKNEYKKQEEFLFNIVEHINDTILERFFKNPSALRYVIDNFVQDLLLLISSPQWPVTEKILSSLLKRLLSVYSPSMQVSANIETICLQLIGNIGSTIFDIKCSTRDHEDNNLIKMINYPETLPHFFKSFEECIAYNETIKCRRSATRFLWNLRLGTILILEEYTKDAKEQIITVDNELKKILEQIKDGGLGPELENREADFSTIKLDYFSILHAFELLNLYDPYLKLILSLLAKDKIKLRSTAIKCLSMLASKDKVILSNPMVKETIHRRLNDSSASVKDAILDLVSINSSYFEFYQQINNNYNDDSIMVRKHVLRINEKMYDETNDIVTKVYVIARILMKIEDEEDNIIDMARLILLNRWILKVHEVLDQPEKLKEISSSVLLVMSRVAIMNEKCSQLFDLFLNFYLLNKEAHSKEAYDKITHVLTILTDFLVQKIVELNSDDTNEKNSIVDKQNFLNLLAKFADSTVSFLTKDHITALYPYMVSDEKSDFHYYILQVFRCTFEKLANFKQKFLYDLETTLLSRLPKMNVREIDEAMPLIWSVATHRHDTARVAKACSSCLSHLHPYINKANNEEAAIVVDGKLQRLIYLSTGFARFCFPKPSNDKIAFLQEGETLYEHITKCLLVLSKDKITHVIRRVAVKNLTKLCGNHPKLFNSRHVLHLLDKEFQSDQLDIKLVILESLYDLFLLEERKSVRNTGVNSTLSSNSILKKKLLKTNRVEFANDGVCSALATRFLDNILQLCLLRDLKNSLVAIRLLKLILKFGYTNPSHSIPTVIALFASTSQYIRHVAYELLEDLFEKYETLVFSSLSRGVTKAIHYSIHTDEKYYYKHDHFLSLLEKLCGTGKKNGPKFFKVLKRIMQSYLDDITDLTSTNSSVQKSIFVLCTNISNITFVSQYDLVSLLKTIDLTTDRLKEVIMDEIGDNVSSLSVSEEKLSGIILIQLSLQDLGTYLLHLYGLRDDVLLLDIVEESELKNKQLPAKKPDISKFSAQLENIEQYSSNGKLLTYFRKHVKDT
notes: Scc2, S. cerevisiae; source: S. cerevisiae W303, in vivo, whole-cell extract
[1]
  crosslink relative to wild type: ~70%
[2]
  crosslink relative to wild type: ~70%
